This data set deals with the molecule itself. Briefly: native gel or EMSA; Blue Native PAGE of inner membrane vesicles from a cell lysate, Western blot. (In general: Mobility shift assays separate free from complexed probe on a gel.)

B1: cysteine-less YidC (YidC0), monomeric construct (natural protein, E. coli, UniProt P25714 1-548, looked up)
chain: MDSQRNLLVIALLFVSFMIWQAWEQDKNPQPQAQQTTQTTTTAAGSAADQGVPASGQGKLISVKTDVLDLTINTRGGDVEQALLPAYPKELNSTQPFQLLETSPQFIYQAQSGLTGRDGPDNPANGPRPLYNVEKDAYVLAEGQNELQVPMTYTDAAGNTFTKTFVLKRGDYAVNVNYNVQNAGEKPLEISSFGQLKQSITLPPHLDTGSSNFALHTFRGAAYSTPDEKYEKYKFDTIADNENLNISSKGGWVAMLQQYFATAWIPHNDGTNNFYTANLGNGIAAIGYKSQPVLVQPGQTGAMNSTLWVGPEIQDKMAAVAPHLDLTVDYGWLWFISQPLFKLLKWIHSFVGNWGFSIIIITFIVRGIMYPLTKAQYTSMAKMRMLQPKIQAMRERLGDDKQRISQEMMALYKAEKVNPLGGSFPLLIQMPIFLALYYMLMGSVELRQAPFALWIHDLSAQDPYYILPILMGVTMFFIQKMSPTTVTDPMQQKIMTFMPVIFTVFFLWFPSGLVLYYIVSNLVTIIQQQLIYRGLEKRGLHSREKKKS
notes: membrane insertase YidC of E. coli, the plasmid-encoded yidC gene; cysteine 423 replaced by serine; Copies 2 is the dimeric form seen on Blue Native PAGE. 'Full length' rests on the words 'the yidC gene'; also called YidC-C0; monomeric YidC0; source: E. coli MK6, from plasmid pGZ119-YidC0, in inner membrane vesicles from a cell lysate
In general, stoichiometry N refers to a count of units in the complex or per binding partner. Turning to B1, the “stoichiometry N” value came to 2.

Values taken from PMC5766580, “Each protomer of a dimeric YidC functions as a single membrane insertase” (Scientific Reports, 2018).
